Assay results published in IntAct's records for PubMed 20643958.

B1: DNA primase large subunit (Homo sapiens), P49643-1 (parent)
chain: MEFSGRKWRKLRLAGDQRNASYPHCLQFYLQPPSENISLIEFENLAIDRVKLLKSVENLGVSYVKGTEQYQSKLESELRKLKFSYRENLEDEYEPRRRDHISHFILRLAYCQSEELRRWFIQQEMDLLRFRFSILPKDKIQDFLKDSQLQFEAISDEEKTLREQEIVASSPSLSGLKLGFESIYKIPFADALDLFRGRKVYLEDGFAYVPLKDIVAIILNEFRAKLSKALALTARSLPAVQSDERLQPLLNHLSHSYTGQDYSTQGNVGKISLDQIDLLSTKSFPPCMRQLHKALRENHHLRHGGRMQYGLFLKGIGLTLEQALQFWKQEFIKGKMDPDKFDKGYSYNIRHSFGKEGKRTDYTPFSCLKIILSNPPSQGDYHGCPFRHSDPELLKQKLQSYKISPGGISQILDLVKGTHYQVACQKYFEMIHNVDDCGFSLNHPNQFFCESQRILNGGKDIKKEPIQPETPQPKPSVQKTKDASSALASLNSSLEMDMEGLEDYFSEDS

Variants of: B1
Settings: with rfa2_human RPA2, P15927
rfa2_human RPA2, P15927, sequence (P15927 whole entry): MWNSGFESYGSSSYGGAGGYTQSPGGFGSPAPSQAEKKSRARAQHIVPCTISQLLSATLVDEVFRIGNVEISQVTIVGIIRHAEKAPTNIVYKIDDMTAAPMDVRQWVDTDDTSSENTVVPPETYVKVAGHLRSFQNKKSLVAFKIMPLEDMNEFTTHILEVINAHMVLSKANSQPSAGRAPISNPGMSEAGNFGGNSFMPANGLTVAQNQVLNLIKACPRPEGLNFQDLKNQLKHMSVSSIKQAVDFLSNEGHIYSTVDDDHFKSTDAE

Variant | effect of a mutation on the interaction
R302E | decreasing interaction
H299D | decreasing interaction
R296E | decreasing interaction

Variants of: B1
Settings: with rfa2_human RPA2, P15927
Remark: another data set of the same source

Variant | effect of a mutation on the interaction
R302E | disrupting interaction
